According to publication PMC6189457:

Assay: confocal FL-CD19-GFP, WGA Pearson colocalisation, Nalm6 and 697
Conditions: glycan changed form; control: DMSO

B1: CD19: swainsonine (protein)
parent chain: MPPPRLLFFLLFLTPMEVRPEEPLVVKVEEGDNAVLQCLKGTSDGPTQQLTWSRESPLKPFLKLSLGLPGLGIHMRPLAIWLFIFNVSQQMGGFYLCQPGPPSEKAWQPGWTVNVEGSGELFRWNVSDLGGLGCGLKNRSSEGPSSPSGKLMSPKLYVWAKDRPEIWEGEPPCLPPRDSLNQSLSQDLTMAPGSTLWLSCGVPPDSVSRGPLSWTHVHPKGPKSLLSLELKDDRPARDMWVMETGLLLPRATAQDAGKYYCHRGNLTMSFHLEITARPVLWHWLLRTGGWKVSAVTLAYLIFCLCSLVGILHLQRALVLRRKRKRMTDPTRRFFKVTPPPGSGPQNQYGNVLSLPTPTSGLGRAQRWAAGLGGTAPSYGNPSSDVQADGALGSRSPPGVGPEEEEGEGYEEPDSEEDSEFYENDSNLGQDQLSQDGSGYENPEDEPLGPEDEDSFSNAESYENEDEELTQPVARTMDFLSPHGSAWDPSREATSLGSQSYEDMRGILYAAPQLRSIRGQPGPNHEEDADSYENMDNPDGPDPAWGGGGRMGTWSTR
  localisation_or_trafficking: no change
